Reference: patent publication US6379959 (UNIVERSITAT AUTONOMA DE BARCELONA, dated 2002)
Positions of bridges follow the written chain, without caps; N, C: chain ends. No end group written: not given here.

Experiments:
[1] = target: T1, receptor for epidermic growth factor (EGF-R) on Capan-1 and A431 cells (human (human cell line Capan-1), UniProt P00533 25-1210); assay: competition with 125I-EGF on Capan-1 cells, two-site fit (Graphpad Inplot4); low affinity site
T1 construct: whole, on cells; both are called EGF receptors; also called EGF receptor; receptor of EGF
Protocol: (§1) From the previous adjustment, the value of $IC50$ for the two binding sites and the percentage of each type of binding sites was determined.

[2] = target: T1, receptor for epidermic growth factor …; assay: competition with 125I-EGF on Capan-1 cells, two-site fit (Graphpad Inplot4); high affinity site
Protocol: as §1

B1: potato carboxypeptidase inhibitor, isoform IIa, recombinant (other)
chain: EQHADPICNKPCKTHDDCSGAWFCQACWNSARTCGPYVG
modifications: disulfide 12-27, 18-34, 8-24
notes: Secreted from E. coli MC1061 (pIMAM3, OmpA signal peptide directly before the first codon of native PCI); also called PCI; rPCI
For B1, the IC50 [1] was 579 µM and the IC50 [2] was 14 pM.
